Assay results published in article doi:10.1101/2025.07.21.665964.

Molecular target: Avi-GST-CMG2^ABD
Test: BLI

Substance “purified actin (polymerized F-actin) (from UniProt P60709 1-375) (natural protein)” has a Kd of 10 nM.
